The source of these data is patent US8529881B2, “Peptides for active anti-cytokine immunization” (Vaxconsulting, priority 2002, dated 2013).

Several values for one entry are separate records, joined by “and”; a condition that tells them apart may be missing. Equal entries are not always repeated. Positions of bridges follow the written chain, without caps; N, C: chain ends. No end group written: not given here.

Assay [1] has as its target T1, human IL18 (native cytokine) (Homo sapiens, UniProt Q14116).
T1 sequence (Q14116 37-193): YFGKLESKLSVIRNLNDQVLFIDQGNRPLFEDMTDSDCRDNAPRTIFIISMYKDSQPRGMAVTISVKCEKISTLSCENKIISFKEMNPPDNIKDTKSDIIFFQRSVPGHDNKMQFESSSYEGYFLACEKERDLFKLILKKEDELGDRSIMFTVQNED
The assay is described as follows: ELISA of serum from immunized mice with native IL18. The assay is classed as in vivo. As to conditions: serum day 60. On the technique in general: ELISA stands for enzyme-linked immunosorbent assay.

Assay [2] deals with human IL12p40 (native cytokine) (Homo sapiens, UniProt P29460). As to conditions: in vivo.
Assay [3] deals with human vEGF (native cytokine). In words: ELISA of serum from immunized mice with native vEGF. As to conditions: serum day 60. The class given is in vivo.
The target of assay [4] is T2, human TGFβ2 (native cytokine) (Homo sapiens, UniProt P61812).
T2 sequence (P61812 303-414 limits assumed): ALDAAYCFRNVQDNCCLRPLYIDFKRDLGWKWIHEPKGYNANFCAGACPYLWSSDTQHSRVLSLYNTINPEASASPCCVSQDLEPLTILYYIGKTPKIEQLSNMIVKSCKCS
The assay is described as follows: ELISA of serum from immunized mice with native TGFβ2. The class given is in vivo. As to conditions: serum day 60.

Another assay deals with IFNγ (native cytokine). The class given is cell-based, human.
Assay [5] has as its target human IFNγ (native cytokine) (Homo sapiens, UniProt P01579). As to conditions: in vivo.
The target of assay [6] is T3, human IL5 (native cytokine) (Homo sapiens, UniProt P05113).
T3 sequence (P05113 20-134): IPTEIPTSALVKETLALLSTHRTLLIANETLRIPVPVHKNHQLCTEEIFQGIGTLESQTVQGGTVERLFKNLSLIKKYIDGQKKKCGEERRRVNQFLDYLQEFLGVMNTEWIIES
In words: ELISA of serum from immunized mice with native IL5. The class given is in vivo. As to conditions: serum day 60.

In assay [7] the target is human IL10 (native cytokine) (Homo sapiens, UniProt P22301). In words: ELISA of serum from immunized mice with native IL10. The class given is in vivo. As to conditions: serum day 60.
The target in assay [8] is T4, human IP10 (native cytokine) (Homo sapiens, UniProt P02778).
T4 sequence (P02778 22-98): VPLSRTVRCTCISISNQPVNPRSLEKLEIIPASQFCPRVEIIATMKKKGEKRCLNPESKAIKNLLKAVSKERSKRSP
In words: ELISA of serum from immunized mice with native IP10. As to conditions: serum day 60. The class given is in vivo.

For the next assay, the target named is native TNFα cytokine (Homo sapiens, UniProt P01375). In words: Neutralization of native TNFα by mouse serum, lysis of L929 cells. The class given is cell-based. As to conditions: for percentage inhibition of the lysis (neutralization of the TNFα): 50 units TNFα, 24 hours. How it is done:
The existence of antibodies neutralizing the native cytokine was evaluated as follows: 50 units of native TNFα cytokine are preincubated with serum from mice (immunized or control) diluted 1/200th over 2 hours at 37° C. The whole is then added to L929 cells, with 25,000 cells per microwell. The lysis of the cells is evaluated after 24 hours by staining with naphthol blue black (Sigma).

The target of assay [9] is human TNFα (native cytokine) (Homo sapiens, UniProt P01375). In words: ELISA of serum from immunized mice with native TNFα. The class given is in vivo. As to conditions: serum day 60.
For assay [10], the target named is T5, human IL4 (native cytokine) (Homo sapiens, UniProt P05112).
T5 sequence (P05112 25-153): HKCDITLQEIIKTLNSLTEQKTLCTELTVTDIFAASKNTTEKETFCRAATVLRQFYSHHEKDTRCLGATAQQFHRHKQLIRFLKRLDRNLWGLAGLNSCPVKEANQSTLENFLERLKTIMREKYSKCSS
In words: ELISA of serum from immunized mice with native IL4. The class given is in vivo. As to conditions: serum day 60.

native TNFα cytokine, sequence (P01375 77-233 limits assumed): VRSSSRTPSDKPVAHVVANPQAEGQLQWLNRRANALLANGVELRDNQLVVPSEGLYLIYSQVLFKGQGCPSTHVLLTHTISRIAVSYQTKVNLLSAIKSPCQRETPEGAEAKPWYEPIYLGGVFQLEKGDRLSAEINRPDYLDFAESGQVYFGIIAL
human TNFα (native cytokine), sequence (P01375 77-233 limits assumed): as above
human IL10 (native cytokine), sequence (P22301 19-178): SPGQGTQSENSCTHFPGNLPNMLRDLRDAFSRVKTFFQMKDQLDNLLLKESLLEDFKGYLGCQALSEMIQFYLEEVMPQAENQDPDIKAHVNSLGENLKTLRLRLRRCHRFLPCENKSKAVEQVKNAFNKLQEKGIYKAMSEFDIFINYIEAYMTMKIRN
human IL12p40 (native cytokine), sequence (P29460 23-328): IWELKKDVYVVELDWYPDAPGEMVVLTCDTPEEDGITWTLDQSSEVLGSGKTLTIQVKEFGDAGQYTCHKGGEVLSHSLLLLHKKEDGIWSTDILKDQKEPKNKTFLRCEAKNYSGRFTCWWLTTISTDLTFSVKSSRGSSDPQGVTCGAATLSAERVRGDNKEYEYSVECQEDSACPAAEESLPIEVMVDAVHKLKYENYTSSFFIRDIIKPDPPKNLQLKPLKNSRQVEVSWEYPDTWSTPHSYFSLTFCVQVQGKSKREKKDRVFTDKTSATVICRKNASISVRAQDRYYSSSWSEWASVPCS
human IFNγ (native cytokine), sequence (P01579 24-161): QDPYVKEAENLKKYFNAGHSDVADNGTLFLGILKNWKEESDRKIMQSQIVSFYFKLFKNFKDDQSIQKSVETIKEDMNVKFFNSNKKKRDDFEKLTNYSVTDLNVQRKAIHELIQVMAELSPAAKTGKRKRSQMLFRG

Turning to “KYFGKLESKLSVIRNLNDQVLFID (also: KLH conjugate via glutaraldehyde; listed as Homo sapiens) [Example 8, peptide originating from human IL18, K added, coupled with KLH]”, the “average absorbance, ELISA native IL18” value was 1.35 in assay [1] (Average of 5 mice); 1.85 in assay [1] (Mouse 1); 1.13 in assay [1] (Mouse 2); 0.99 in assay [1] (Mouse 3); 1.24 in assay [1] (Mouse 4); 1.54 in [1] (Mouse 5).
As for KKEDGIWSTDILKDQKEPKNKTFLRCE [Example 7], the “average absorbance, ELISA native IL12p40” value in assay [2] was 0.95 and 1.06 and 1.58 and 1.14 and 0.87 and 1.12.
On to “KPHQGQHIGEMS (also: KLH conjugate via glutaraldehyde; listed as Homo sapiens) [Example 2, synthetic peptide originating from human vEGF coupled to KLH]”, for which the “average absorbance, ELISA native vEGF” value in assay [3] (Average of 5 mice) is given as 1.19; in [3] (Mouse 1) it was 1.50; in assay [3] (Mouse 2), 1.00; in [3] (Mouse 3), 0.86; in [3] (Mouse 4), 0.98; in assay [3] (Mouse 5), 1.63.
Consider “DTILYYIGKTPKIE (also: KLH conjugate via carbodiimide; listed as Homo sapiens) [Example 11, peptide corresponding to human TGFβ2, D added, coupled with KLH]”, for which the “average absorbance, ELISA native TGFβ2” value in [4] (Average of 5 mice) came out at 1.07; in assay [4] (Mouse 1) it was 0.95; in assay [4] (Mouse 2), 1.15; in assay [4] (Mouse 3) it was 0.99; in assay [4] (Mouse 4), 1.17; in assay [4] (Mouse 5), 1.08.
Regarding KKYFNAGHSDVADNGTLFLGILKN [Example 4], in the assay on IFNγ (native cytokine), the “neutralization of the IFNγ, result in words” value is “inhibitions are observed for the immunized mice”. The “average absorbance, ELISA native IFNγ” value in [5] was 1.56 and 1.05 and 0.98 and 1.80 and 1.64 and 1.41.
For “KLQEFLGVMNTEWI (also: KLH conjugate via glutaraldehyde; listed as Homo sapiens) [Example 10, peptide corresponding to human IL5, K added, coupled with KLH]”, the “average absorbance, ELISA native IL5” value in [6] (Average of 5 mice) amounted to 1.26; in assay [6] (Mouse 1), 1.25; in [6] (Mouse 2), 1.21; in assay [6] (Mouse 3), 1.87; in assay [6] (Mouse 4), 1.10; in [6] (Mouse 5), 0.88.
Take “DECNMLRDLRDAFSRVKTFFQMKDQLDNC (disulfide 3-29 (inferred); also: KLH conjugate; listed as Homo sapiens) [Example 5, cyclic peptide originating from human IL10 coupled with KLH]”: the “average absorbance, ELISA native IL10” value in assay [7] (Average of 5 mice) is recorded as 1.44; in assay [7] (Mouse 1), 1.94; in assay [7] (Mouse 2) it was 0.96; in assay [7] (Mouse 3), 1.85; in assay [7] (Mouse 4), 0.97; in assay [7] (Mouse 5), 1.5.
KKKGEKRCLNPESKA [Example 9]: the “average absorbance, ELISA native IP10” value in assay [8] (Average of 5 mice) is reported as 1.07; in [8] (Mouse 1), 1.16; in assay [8] (Mouse 2), 0.98; in assay [8] (Mouse 3), 1.24; in [8] (Mouse 4) it was 1.09; in [8] (Mouse 5) it was 0.88.
Regarding “KYQAEGQLQWLNRRANALLANGVELRDNQL (also: KLH conjugate via diazobenzidine; listed as Homo sapiens) [Example 3, synthetic peptide originating from human TNFα, K and Y added, coupled to KLH]”, the “percentage inhibition of the lysis (neutralization of the TNFα)” value in the assay with native TNFα cytokine (Average of 5 mice, serum diluted 1/200th) was 61%; with native TNFα cytokine (Mouse 1, serum diluted 1/200th), 88%; in the assay with native TNFα cytokine (Mouse 2, serum diluted 1/200th) it was 12%; with native TNFα cytokine (Mouse 3, serum diluted 1/200th), 93%; with native TNFα cytokine (Mouse 4, serum diluted 1/200th), 36%; with native TNFα cytokine (Mouse 5, serum diluted 1/200th), 79%. The “neutralization of the TNFα, result in words” value with native TNFα cytokine (serum of immunized mice vs controls) is given as “responses are observed for the immunized mice”. Further, the “average absorbance, ELISA native TNFα” value in assay [9] (Average of 5 mice) was found to be 1.31; in assay [9] (Mouse 1), 1.64; in assay [9] (Mouse 2), 1.14; in assay [9] (Mouse 3), 1.96; in [9] (Mouse 4) it was 1.02; in assay [9] (Mouse 5), 0.78.
For the sequence “KQLIRFLKRLDRNLWGLAG (also: KLH conjugate via glutaraldehyde; listed as Homo sapiens) [Example 6, peptide corresponding to human IL4 coupled with KLH]”, the “average absorbance, ELISA native IL4” value is on record as 1.07 in assay [10] (Average of 5 mice); 1.06 in assay [10] (Mouse 1); 1.25 in assay [10] (Mouse 2); 0.95 in assay [10] (Mouse 3); 0.87 in [10] (Mouse 4); 1.24 in assay [10] (Mouse 5).
